The source of these data is PMC9329948, “Surface-Enhanced Carboxyphenyl Diazonium Functionalized Screen-Printed Carbon Electrode for the Screening of Tuberculosis in Sputum Samples”.

Series [1] concerns the target T1, CFP10 antigen (Mycobacterium tuberculosis, UniProt P9WNK5 2-100). Nature of the series: ELONA; no significant difference from aptamer-alone control; ELONA: antigen coated in 0.06 M carbonate pH 9.6, 3% BSA block, aptamer 2 h at room temperature, 0.01 M PBS washes; aptamer/electrode binding buffer 20 mM Tris-HCl pH 7.4, 150 mM NaCl, 2 mM MgCl2, 2 mM KCl, 2 mM CaCl2, room temperature. The note with it: protein: recombinant; label: biotin.

The target of series [2] is T2, MPT64 antigen (Mycobacterium tuberculosis, UniProt P9WIN9 24-228). Kind of series: ELONA; 5 uM aptamer; antigen coated at 5 ug/mL; p < 0.0001 vs control; ELONA: antigen coated in 0.06 M carbonate pH 9.6, 3% BSA block, aptamer 2 h at room temperature, 0.01 M PBS washes; aptamer/electrode binding buffer 20 mM Tris-HCl pH 7.4, 150 mM NaCl, 2 mM MgCl2, 2 mM KCl, 2 mM CaCl2, room temperature. Conditions: protein: recombinant; label: biotin.

For series [3], the target named is T1, CFP10 antigen. Kind of series: amperometric sandwich aptasensor; selectivity test; read-out also needs anti-MPT64 antibody; ELONA: antigen coated in 0.06 M carbonate pH 9.6, 3% BSA block, aptamer 2 h at room temperature, 0.01 M PBS washes; aptamer/electrode binding buffer 20 mM Tris-HCl pH 7.4, 150 mM NaCl, 2 mM MgCl2, 2 mM KCl, 2 mM CaCl2, room temperature. Conditions: protein: recombinant.

For series [4], the target named is T2, MPT64 antigen. Kind of series: amperometric sandwich aptasensor; HRP anti-MPT64 antibody detection; LOD 1.11 ng/mL, linear 5-200 ng/mL; ELONA: antigen coated in 0.06 M carbonate pH 9.6, 3% BSA block, aptamer 2 h at room temperature, 0.01 M PBS washes; aptamer/electrode binding buffer 20 mM Tris-HCl pH 7.4, 150 mM NaCl, 2 mM MgCl2, 2 mM KCl, 2 mM CaCl2, room temperature. The note with it: protein: recombinant.

T2 sequence (P9WIN9 24-228): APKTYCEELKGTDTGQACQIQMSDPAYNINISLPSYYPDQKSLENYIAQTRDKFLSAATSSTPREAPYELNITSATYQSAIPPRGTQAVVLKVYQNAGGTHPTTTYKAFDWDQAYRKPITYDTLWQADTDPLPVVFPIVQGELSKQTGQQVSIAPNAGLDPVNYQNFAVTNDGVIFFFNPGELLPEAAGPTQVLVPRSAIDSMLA
T1 sequence (P9WNK5 2-100): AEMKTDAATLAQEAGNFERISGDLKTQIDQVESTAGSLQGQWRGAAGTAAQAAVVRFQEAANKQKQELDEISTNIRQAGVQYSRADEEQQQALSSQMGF

Turning to TTTTTTTTTTGGGAGCTGATGTCGCATGGGTTTTGATCACATGA (ssDNA, biotin, position not stated) [MPT64 aptamer, biotinylated (ELONA)], the binding result in the series with CFP10 antigen [1] is on record as “no binding”; with MPT64 antigen [2], “binds”.
As for TTTTTTTTTTGGGAGCTGATGTCGCATGGGTTTTGATCACATGA (ssDNA, 5' AmMC6) [MPT64 aptamer, 5'-amino (electrode)], the binding result with CFP10 antigen [3] was “no binding”; in the series with MPT64 antigen [4], “binds”.
